Reference: US20040053231A1 (published 2004)

Columns and labels:
[1] = target: T1, GST-p300CH1 (p300 residues 300-528) (UniProt Q09472 300-528); test: GST pull-down of 35S-labelled in vitro translated protein on GST-p300CH1
T1 construct: range 300-528; Bacterially expressed, immobilised on glutathione beads; the construct is described in Bhattacharya et al., 1999; also called GST-CH1; GST tagged p300 (CH1 domain); not shown: glutathione S-transferase tag from pGEX4T1 (Pharmacia)

[2] = target: T2, GAL4-CH1 (residues 300-528 of p300 fused to the DNA-binding domain of GAL4) (UniProt P04386 1-147; Q09472 300-528); test: mammalian two-hybrid, GAL4-luciferase reporter, Hep3B cells
T2 construct: also called GAL4-p300CH1

T1 sequence (Q09472 300-528): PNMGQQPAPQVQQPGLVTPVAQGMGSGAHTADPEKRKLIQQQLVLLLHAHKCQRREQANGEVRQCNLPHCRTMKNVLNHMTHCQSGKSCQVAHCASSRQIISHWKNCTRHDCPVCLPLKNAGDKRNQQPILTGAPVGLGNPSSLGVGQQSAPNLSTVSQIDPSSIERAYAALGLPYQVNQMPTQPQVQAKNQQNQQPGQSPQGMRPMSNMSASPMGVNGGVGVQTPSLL

Row | Binder | binding result [1] | binding result [2]
1 | HCITEDX mutant lacking the carboxy-terminal residues 138 to 184 (other, 35S-labelled (in vitro translated) in the GST pull-down assay, also called HCITEDXΔ; carboxy-terminal mutant) MADHLMLAEGYRLVQRPPSAAAAHGPHALRTLPPYAGPGLDSGLRPRGAPLGPPPPRQPGALAYGAFGPPSSFQPFPAVPPPAAGIAHLQPVATPYPGRAAAPPNAPGGPPGPQPAPSAAAPPPPAHALGGMDAELI | no binding | 
2 | VP16-HCITEDX? (VP16 activation domain fused to residues 1-137 of HCITEDX) (other, also called VP16-HCITEDXΔ) MADHLMLAEGYRLVQRPPSAAAAHGPHALRTLPPYAGPGLDSGLRPRGAPLGPPPPRQPGALAYGAFGPPSSFQPFPAVPPPAAGIAHLQPVATPYPGRAAAPPNAPGGPPGPQPAPSAAAPPPPAHALGGMDAELI |  | no binding
